Results published in patent US20060172938.

System: T1, cyclic peptide CDMWERVSRC
T1 sequence: CDMWERVSRC

Sequence of Native seprase isolated from LOX cells (chain): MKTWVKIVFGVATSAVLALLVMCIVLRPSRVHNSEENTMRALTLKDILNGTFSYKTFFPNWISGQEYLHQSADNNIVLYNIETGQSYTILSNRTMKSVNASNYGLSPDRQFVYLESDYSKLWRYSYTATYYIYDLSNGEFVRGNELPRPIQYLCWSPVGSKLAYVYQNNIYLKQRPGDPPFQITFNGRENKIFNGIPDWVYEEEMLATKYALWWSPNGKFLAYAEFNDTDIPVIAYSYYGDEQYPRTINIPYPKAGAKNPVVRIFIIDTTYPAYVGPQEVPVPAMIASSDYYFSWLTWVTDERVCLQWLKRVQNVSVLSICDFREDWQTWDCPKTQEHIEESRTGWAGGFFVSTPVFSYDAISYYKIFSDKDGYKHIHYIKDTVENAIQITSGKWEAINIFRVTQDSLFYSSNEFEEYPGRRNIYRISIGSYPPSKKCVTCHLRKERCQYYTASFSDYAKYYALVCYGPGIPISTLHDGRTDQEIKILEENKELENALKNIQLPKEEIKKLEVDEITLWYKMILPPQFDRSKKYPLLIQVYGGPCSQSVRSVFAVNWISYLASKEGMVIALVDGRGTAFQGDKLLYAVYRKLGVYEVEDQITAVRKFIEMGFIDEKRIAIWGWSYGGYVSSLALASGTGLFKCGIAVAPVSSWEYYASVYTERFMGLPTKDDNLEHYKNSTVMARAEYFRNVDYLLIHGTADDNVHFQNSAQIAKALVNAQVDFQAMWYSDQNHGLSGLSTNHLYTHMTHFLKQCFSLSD

Substance: Native seprase isolated from LOX cells
- increase of the catalytic Km for Gly-Pro-pNA (Lineweaver-Burke analysis): When the concentration of CDMWERVSRC [SEQ ID NO: 3] was 62.5 mM, the catalytic Km value increased by 5 times (from 0.7 mM to 3.5 mM)
